# Assay results taken from patent publication US6087375A, “Methods of treating or preventing thromboses” (priority 1999, dated 2000).
# Legend:
# [1] = test system: human platelets (thrombin-induced aggregation); test: Thrombin-induced platelet aggregation assay; format: cell-based; conditions: for IC50 (estimated concentration which inhibits 50% of the aggregation): 0.5 U/mL human thrombin, 37° C., conjugate: average of 10 argatrobans/RSA used
# Method: The conjugate was prepared according to the following protocol. A 15 μM solution of RSA in PBS was reacted with 200 μM argatroban-C6 NHS ester for 1 hour at room temperature. Sham samples consist of the RSA incubated for the same length of time at RT in 2% DMSO in PBS. Each of the samples was then concentrated to a final volume of 1.5 mL using Amicon Centricon 30 filtration/concentration devices. The concentrated samples were then desalted on Pierce's 5 ML Kwiksep excellulose plastic desalting columns. The excluded volumes containing RSA or argatroban-C6-RSA were then subjected to BCA microprotein estimation and lyophilization. In addition, these samples were analyzed by LC/MS, sandwich ELISA assays (described above) to measure thrombin binding and immunoblotting.
# Platelets were purified from freshly drawn human blood diluted with the anticoagulant buffer ACD (9 mls of blood to 1 mL of buffer). The blood was centrifuged for 25 min at 200×g. The platelet-rich plasma (PRP) was recovered with a plastic pipette. The PRP was centrifuged for 15 min at 3,000×g in v-shaped plastic tubes. The supernatant, called platelet-poor plasma (PPP), was then removed and saved, and the platelets were resuspended in buffer A1 (35 mM citric acid, 103 mM NaCl, 5 mM each of glucose and KCl, 2 mM CaCl2, 1 mM […], 3.5 mg/mL BSA, 0.1 μM PGE1 and 0.3 U/mL of apyrase at pH 6.5). The resuspended platelets were washed 2 times with buffer A1. After the last wash, the platelets were resuspended in buffer B1 (137 mM NaCl, 2.6 mM KCL 12 mM NaHCO3, 0.3 mM NaH2 PO4, 3 mM CaCl2, 1 mM MgCl2, 5 mM glucose, 3.5 mg/mL BSA and […] apyrase at pH 7.4) at a density of 3×10^5 /μL. The platelets were maintained at room temperature until ready for use.
# Various parameters relevant to platelet aggregation were obtained on a four channel aggregometer manufactured by AFFI BIO. In brief, the reaction chambers are warmed to 37° C. and are agitated at a rate of 1,200 rpm. Light is passed through the reaction chambers, with 300 μL of buffer B1 used to set the 100% transmittance level for each chamber. From a series of standardization experiments, it was determined that 0.5 U/mL of human thrombin (Sigma) is an optimal aggregating concentration of thrombin and is used to set. the 0% transmittance for the instrument. Standard conditions for the assay involve incubating 250 μL of the platelet suspension with or without 50 μL of inhibitor diluted in buffer in the reaction chambers for 60 seconds at 37° C. The value of transmittance is now set as 0%. After this measurement, thrombin is added to the reaction chambers (20 μl) and transmittance is measured for the next 6 minutes. Samples were performed in triplicate.
# [2] = molecular target: thrombin from human plasma (Homo sapiens, UniProt P00734); test: Km-based fluorogenic assay for inhibition of thrombin (Example 7); format: biochemical; parameters: from tissue; host or cells: human plasma; conditions: FIGS. 9 and 10
# Method: Thrombin from human plasma was obtained from Enzyme System Products, Dublin, Calif., in glycerol:water 1:1, 11.4 mg/ml, 3800 U/mg, MW 36,700, and stored undiluted at -20° C. It was freshly diluted the day of use.
# To dilute for the assay, 0.67 μl (25 Units) of thrombin was pipetted into 5 ml of 0.1 mg/ml BSA (from Pierce, Catalog No. 23209, BSA fraction V, a 2 mg/ml stock in saline with sodium azide), in cold PBS (GIBCO, Catalog No. 14190-136, without calcium chloride and magnesium chloride, pH 7.2) and briefly vortexed, yielding a stock of 5 mU thrombin/μl.
# The substrate was N-tBOC-β-Benzyl-Asp-Pro-Arg-7-Amido4-Methylcoumarin HCl and was obtained from Sigma, Catalog No. B4028, Lot 122H0070, F.W. 770.3. Five mg was dissolved in […] DMSO for a 4 mM stock. The stock was stored in 200 μl aliquots at -20° C. in the dark.
# An alternative substrate was N-tBOC-Val-Pro-Arg-7-Amido4-Methylcoumarin HCl and was obtained from Sigma, Catalog No. B-9385, Lot 53H0805, F.W. of free base 627.7. Five mg was dissolved in 1.863 ml DMSO for a 4 mM stock. The stock was stored in 200 μl aliquots at -20° C. in the dark.
# The fluorescent standard was 7-Amido4-Methylcoumarin and was obtained from Aldrich, Catalog No. 25,737-0, MW 175.19. […]
# Initial readings were taken to ensure exclusion of rogue wells with abnormally high backgrounds (λ excitation at 360 nm, bandwidth […], λ emission, 460 nm, bandwidth 40 nm). Then, 25 μl of a 10×stock of the putative inhibitor were added per well, mixed for 5 seconds and read kinetically for 10 minutes at ambient temperature to assess background interference and/or any increase in hydrolysis of substrate due to inhibitor.
# The thrombin assay was then initiated by adding 25 μl of thrombin/well with a multichannel pipettor and mixed for 5 seconds. The appearence of the fluorescent product (free 7-amido-4-methylcoumarin released from the peptide by thrombin) was followed simultaneously in 48 wells (one reading per minute for 30 minutes, λ excitation at 360 nm, bandwidth 40 nm, λ emission, 460 nm, bandwidth 40 nm). […]
# [3] = test system: thrombin; test: Sandwich ELISA for thrombin binding of conjugated proteins (anti-thrombin detection); conditions: hGPA conjugate, capture mAb 5F4, FIG. 4
# Method: (§1) The plates were incubated at room temperature for 30 minutes and washed as above.
# as §1
# Next, 100 μl/well of ABC-HRP (Vector, catalog no. PK4000) was added, each component diluted 1:500 in PBS, pH 7.4, with 0.1% TWEEN 20 and incubated 30 minutes at room temperature prior to use.
# [4] = test system: anti-KLH-argatroban antibody; test: Sandwich ELISA using polyclonal anti-KLH-argatroban antibodies; format: binding, rabbit; conditions: for concentration down to which detected: hGPA conjugate
# Method: The reaction was quenched by adding hydroxylamine, pH 7.8 to a final concentration of 50 mM and incubating at room temperature for 10 minutes.
# Rabbit anti-HSA monoclonal antibody (Boehringer/Mannheim, catalog no. 605001) diluted 1:5000 in PBS, pH 7.4 or mouse anti-hGPA monoclonal antibody (BioAtlan-tic/CRTS, mAb 5F4, diluted to 10 μg/ml in 0.1 M sodium acetate, pH 4.5 or mAb 3C10 diluted 1:500 or mAb 3E4 diluted 1:1000 in PBS, pH 7.4 - each antibody recognizes a different epitope of hGPA), were used to capture respective proteins by aliquotting 100 μl/well into a NUNC Maxisorp F96 plate (catalog no. 439454). The plates were incubated overnight at 4° C., were then blocked by the addition of 200 μl/well of 1% BSA/PBS and incubated at room temperature for 1 hour. The plates were then washed 5 times by submersion in PBS, pH 7.4.
# Samples were incubated on the plates for 2 hours at room temperature and then were washed as above.
# The plates were then incubated at room temperature for 30 minutes and washed as above.
# Biotinylated goat anti-rabbit IgG (Vector, catalog no. BA1000) was diluted 1:1000 in 1% BSA/PBS, pH 7.4 and 100 μl/well added to all wells. The plates were incubated at room temperature for 30 minutes and washed as above.
# Next, 100 μl/well of ABC-HRP (Vector, catalog no. PK4000) was added, each component diluted 1:500 in PBS, pH 7.4, with 0.1% TWEEN 20 and incubated 30 minutes at room temperature prior to use. The plates were then washed 10 times by submersion in PBS, pH 7.4.
Molecule,IC50 (estimated concentration which inhibits 50% of the aggregation) [1],IC50 (estimated concentration which inhibits 50% of the aggregation) ([1]; listed as Free argatroban) [µM],interference with platelet aggregation ([1]; even at 150 μM),thrombin inhibition [2],concentration giving a detectable signal (binding of thrombin) [3],"increase of OD490 versus prequenched ester or protein alone ([4]; HSA and hGPA samples, FIGS. 5-8)",concentration down to which detected ([4]; goat anti-rabbit erythrocyte capture) [ng/mL],concentration down to which detected ([4]; mouse anti-hGPA capture) [ng/mL],"detection of hGPA-argatroban derivative ([4]; hGPA, 3C10 mAb, FIG. 7)","detection of hGPA-argatroban derivative ([4]; hGPA, 3E4 mAb, FIG. 8)","concentration at which a significant signal above background was detected ([4]; hGPA, 5F4 mAb, FIG. 6) [ng/mL]"
"CC1CNc2c(cccc2S(=O)(=O)N[C@@H](CCCNC(=N)N)C(=O)N2CC[C@@H](C)C[C@@H]2C(=O)O)C1 (stereo partly drawn) [argatroban, reference compound]",approximately 0.1 μM,0.1 to 0.15,,,,,,,,,
RSA sham: RSA incubated for the same length of time at RT in 2% DMSO in PBS,> 150 µM,,did not interfere with platelet aggregation even at 150 μM,not inhibitory at any concentration assayed,,,,,,,
"hGPA reacted with argatroban-C6 NHS ester: human glycophorin A protein reacted with argatroban-C6 NHS ester (YL-015-35) (conjugate, UniProt P02724 20-150, looked up, argatroban-C6 conjugate) Glycophorin-A: LSTTEVAMHTSTSSSVTKSYISSQTNDTHKRDTYAATPRAHEVSEISVRTVYPPEEETGERVQLAHHFSEPEITLIIFGVMAGVIGTILLISYGIRRLIKKSPSDVKPLPSPDTDVPLSSVEIENPETSDQ",,,,,approximately 30 ng/ml,significant increase of OD490,60,30,at lower levels,at lower levels,~12
